Literature values in article PMC3332193.

Target: EGFR (Homo sapiens) (UniProt P00533)

Kd: < 12 nM
Substance: EGF (from UniProt P01133)
